Our source for the stoichiometry N values is publication PMC7164637.

For the experiment, the target named is 2019-nCoV spike (S) glycoprotein, prefusion-stabilized ectodomain (residues 1-1208, two stabilizing proline mutations) (2019-nCoV). Kind of experiment: cryo-EM structure.

As to “2019-nCoV spike (S) glycoprotein, prefusion-stabilized ectodomain (residues 1-1208, two stabilizing proline mutations) (domain or fragment)”, the stoichiometry N (usually the number of molecules, sites or subunits per partner or assembly) turned out to be 3.
